The record followed here is patent publication US20220119534A1 (DRAGONFLY THERAPEUTICS, published 2022).

The target of experiment [1] is T1, mFc-hNKG2D (human, UniProt P26718 73-216).
T1 construct: extracellular domain; Made in house (Dragonfly Tx); the order of tag and ECD follows the name mFc-hNKG2D; also called mFc-tagged human NKG2D; not shown: mouse Fc tag
T1 sequence (looked up): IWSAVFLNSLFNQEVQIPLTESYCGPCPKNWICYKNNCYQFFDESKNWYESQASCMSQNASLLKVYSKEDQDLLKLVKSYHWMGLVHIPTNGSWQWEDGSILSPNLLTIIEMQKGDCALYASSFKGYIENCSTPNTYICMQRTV
The experiment can be described thus: SPR Biacore 8K 37 C; mFc-hNKG2D captured on anti-mFc chip, TriNKET as analyte; 1:1 kinetic fit; control sample.

For experiment [2], the target named is T1, mFc-hNKG2D. Kind of experiment: SPR Biacore 8K 37 C; mFc-hNKG2D captured on anti-mFc chip, TriNKET as analyte; steady state fit; pH 5.0 control.
Experiment [3] concerns the target T1, mFc-hNKG2D. The experiment can be described thus: SPR Biacore 8K 37 C; mFc-hNKG2D captured on anti-mFc chip, TriNKET as analyte; steady state fit; control sample.
In experiment [4] the target is T1, mFc-hNKG2D. Kind of experiment: SPR Biacore 8K 37 C; mFc-hNKG2D captured on anti-mFc chip, TriNKET as analyte; 1:1 kinetic fit; after 2 wks 40 C at pH 5.0.
The target in experiment [5] is T2, Human CLEC12A-His (human, UniProt Q5QGZ9 65-265).
T2 construct: Recombinant soluble protein made in house; also called hCLEC12A-His; hCLEC12A; not shown: His tag
T2 sequence: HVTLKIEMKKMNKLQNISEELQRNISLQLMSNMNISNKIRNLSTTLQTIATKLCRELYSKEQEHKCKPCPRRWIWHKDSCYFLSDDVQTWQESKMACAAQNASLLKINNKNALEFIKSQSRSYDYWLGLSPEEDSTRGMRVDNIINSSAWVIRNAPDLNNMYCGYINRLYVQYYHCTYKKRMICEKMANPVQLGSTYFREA
The experiment can be described thus: SPR; control sample (pH 5 stress study).

Experiment [6] concerns the target T3, mFc-hNKG2D (human, UniProt P26718 73-216).
T3 construct: extracellular domain; Recombinant mFc-tagged NKG2D dimer, made in house; also called human NKG2D; not shown: mouse Fc tag
T3 sequence (looked up): T1 sequence (looked up)
The experiment can be described thus: SPR; control sample (pH 5 stress study).

Experiment [7] addresses T4, Human CD16a V158 (human, UniProt P08637 17-208, biotinylated).
T4 construct: Bought recombinant receptor; also called hCD16a (V158); hFcγRIIIa V158
Kind of experiment: SPR; control sample (pH 5 stress study).

Experiment [8] concerns the target T5, Human CD16a F158 (FcγRIIIa F158) (human, UniProt P08637 17-208, biotinylated).
T5 construct: Bought recombinant receptor; also called hFcγRIIIa F158
Kind of experiment: SPR 25C, steady-state fit, average.

Experiment [9] deals with T6, Human CD16a V158 (FcγRIIIa V158) (human, UniProt P08637 17-208, biotinylated).
T6 construct: Bought recombinant receptor; also called hCD16aV; hFcγRIIIa V158
Kind of experiment: SPR; after low pH hold.

Experiment [10] concerns the target T7, mFc-hNKG2D (recombinant mFc-tagged human NKG2D dimer) (human, UniProt P26718 73-216).
T7 construct: extracellular domain; Made in house; not shown: mouse Fc tag
T7 sequence (looked up): T1 sequence (looked up)
The experiment can be described thus: SPR; after low pH hold.

Experiment [11] concerns the target T6, Human CD16a V158 (FcγRIIIa V158). The experiment can be described thus: SPR 25C, biotinylated CD16a V158 captured.
The target of experiment [12] is T8, Human CLEC12A-His (recombinant, K244 WT) (human, UniProt Q5QGZ9 65-265).
T8 construct: Made in house (Dragonfly Tx); also called hCLEC12A; hCLEC12A-His; not shown: His tag
T8 sequence: T2 sequence
The experiment can be described thus: SPR, untreated CLEC12A, two-state fit.

Experiment [13] concerns the target T8, Human CLEC12A-His (recombinant, K244 WT). Kind of experiment: SPR, two-state fit (ka1); after pH 8, 40C, 2 wks.
Experiment [14] deals with T9, recombinant human FcRn (human, UniProt P55899 24-297; P61769 21-119).
T9 construct: also called hFcRn
Kind of experiment: SPR 25C, pH 6.0, steady state; pH 6.0; second replicate.

For experiment [15], the target named is T10, recombinant human CD16a V158 (human, UniProt P08637 17-208, biotinylated).
T10 construct: also called FcγRIIIa V158; hCD16aV
The experiment can be described thus: SPR 25C, kinetic fit.

Experiment [16] deals with T11, recombinant cynomolgus CD16 (cynomolgus monkey, UniProt Q8SPW2 17-208, biotinylated).
T11 construct: also called cFcγRIII; cyno CD16
Kind of experiment: SPR 25C, steady state.

In experiment [17] the target is T12, human CLEC12A expressed on cells (human, UniProt Q5QGZ9 1-265).
T12 construct: Transduced isogenic cells or endogenous expression on AML cells; also called RMA-hCLEC12A; Ba/F3-hCLEC12A
T12 sequence: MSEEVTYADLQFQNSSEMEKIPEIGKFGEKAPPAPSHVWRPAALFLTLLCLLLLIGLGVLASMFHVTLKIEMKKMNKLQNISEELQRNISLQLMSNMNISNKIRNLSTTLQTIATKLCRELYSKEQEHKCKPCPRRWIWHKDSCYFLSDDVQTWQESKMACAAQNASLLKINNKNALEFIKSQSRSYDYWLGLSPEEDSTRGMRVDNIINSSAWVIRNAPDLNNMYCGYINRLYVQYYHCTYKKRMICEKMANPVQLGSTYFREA
Kind of experiment: flow cytometry, hCLEC12A+ Ba/F3.

Where a chain is given by its changes, count along the chain named. Numbers in names are those of the source. Where “and” joins values, the source holds several entries; their conditions need not be identical. Equal values may be shown once.

T6 sequence (P08637 17-208 F176V limits assumed): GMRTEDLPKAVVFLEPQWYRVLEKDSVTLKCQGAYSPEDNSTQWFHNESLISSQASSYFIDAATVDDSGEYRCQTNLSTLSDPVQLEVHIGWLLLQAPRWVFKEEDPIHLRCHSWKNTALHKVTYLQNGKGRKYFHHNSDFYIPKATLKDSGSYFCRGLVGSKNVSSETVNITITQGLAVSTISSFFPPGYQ
T10 sequence (P08637 17-208 F176V limits assumed): as above
T4 sequence (P08637 17-208 F176V limits assumed): as above
T11 sequence (Q8SPW2 17-208 limits assumed): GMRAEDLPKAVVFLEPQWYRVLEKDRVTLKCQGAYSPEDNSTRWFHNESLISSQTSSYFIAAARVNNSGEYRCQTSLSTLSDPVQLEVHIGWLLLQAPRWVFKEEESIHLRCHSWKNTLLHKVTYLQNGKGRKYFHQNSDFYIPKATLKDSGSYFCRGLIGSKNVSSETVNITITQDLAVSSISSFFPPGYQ
T9 sequence (P55899 24-297 limits assumed, chain 1 of 2): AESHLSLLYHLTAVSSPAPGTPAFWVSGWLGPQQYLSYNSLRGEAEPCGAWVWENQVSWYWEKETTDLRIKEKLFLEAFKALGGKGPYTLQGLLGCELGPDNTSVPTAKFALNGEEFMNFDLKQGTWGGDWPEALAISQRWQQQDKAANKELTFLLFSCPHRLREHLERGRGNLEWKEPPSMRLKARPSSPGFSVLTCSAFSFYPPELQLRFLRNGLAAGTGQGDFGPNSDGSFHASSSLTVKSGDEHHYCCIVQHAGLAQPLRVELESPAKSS
T9 sequence (P61769 21-119 limits assumed, chain 2 of 2): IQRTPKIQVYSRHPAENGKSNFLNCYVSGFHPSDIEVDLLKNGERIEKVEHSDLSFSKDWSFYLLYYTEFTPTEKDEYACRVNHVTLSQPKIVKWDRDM
T5 sequence (P08637 17-208 limits assumed): as the sequence (P08637 17-208 F176V limits assumed) above, with V160F counted along it

B1: F3'-1602 TriNKET (bispecific antibody, human IgG1, kappa)
chain: QLQLQESGPGLVKPSETLSLTCTVSGFSLTNYGLHWIRQPPGKCLEWIGVIWSGGKTDYNPSLKSRVTISKDTSKNQFSLKLSSVQAADTAVYYCAKYDYDDSLDYWGQGTLVTVSSGGGGSGGGGSGGGGSGGGGSDIQMTQSPSSLSASVGDRVTITCHASQNINFWLSWYQQKPGKAPKLLIYEASNLHTGVPSRFSGSGSGTRFTLTISSLQPEDIATYYCQQSHSYPLTFGCGTKLEIKGSDKTHTCPPCPAPELLGGPSVFLFPPKPKDTLMISRTPEVTCVVVDVSHEDPEVKFNWYVDGVEVHNAKTKPREEQYNSTYRVVSVLTVLHQDWLNGKEYKCKVSNKALPAPIEKTISKAKGQPREPRVYTLPPCRDELTKNQVSLTCLVKGFYPSDIAVEWESNGQPENNYKTTPPVLVSDGSFTLYSKLTVDKSRWQQGNVFSCSVMHEALHNHYTQKSLSLSPG
heavy: EVQLVESGGGLVKPGGSLRLSCAASGFTFSSYSMNWVRQAPGKGLEWVSSISSSSSYIYYADSVKGRFTISRDNAKNSLYLQMNSLRAEDTAVYYCARGAPIGAAAGWFDPWGQGTLVTVSSASTKGPSVFPLAPSSKSTSGGTAALGCLVKDYFPEPVTVSWNSGALTSGVHTFPAVLQSSGLYSLSSVVTVPSSSLGTQTYICNVNHKPSNTKVDKKVEPKSCDKTHTCPPCPAPELLGGPSVFLFPPKPKDTLMISRTPEVTCVVVDVSHEDPEVKFNWYVDGVEVHNAKTKPREEQYNSTYRVVSVLTVLHQDWLNGKEYKCKVSNKALPAPIEKTISKAKGQPREPQVCTLPPSRDELTENQVSLTCLVKGFYPSDIAVEWESNGQPENNYKTTPPVLDSDGSFFLYSWLTVDKSRWQQGNVFSCSVMHEALHNHYTQKSLSLSPG
light: DIQMTQSPSSVSASVGDRVTITCRASQGISSWLAWYQQKPGKAPKLLIYAASSLQSGVPSRFSGSGSGTDFTLTISSLQPEDFATYYCQQGVSFPRTFGGGTKVEIKRTVAAPSVFIFPPSDEQLKSGTASVVCLLNNFYPREAKVQWKVDNALQSGNSQESVTEQDSKDSTYSLSSTLTLSKADYEKHKVYACEVTHQGLSSPVTKSFNRGEC
notes: Trispecific F3' format: CLEC12A scFv-Fc paired with NKG2D Fab-Fc; Stressed and control samples of the stability studies are the same molecule; also called AB0237
Regarding B1, the Kd in [1] amounted to 760 nM; in experiment [2] it was 684 nM; in experiment [3], 771 nM; in experiment [4], 675 nM. Moreover, the koff in [1] was 0.129 s⁻¹; in [4], 0.127 s⁻¹. Also, the kon in experiment [1] amounted to 170000 M⁻¹ s⁻¹; in experiment [4], 188000 M⁻¹ s⁻¹.

B2: AB0192 TriNKET (other)
chain: EVQLVESGGGVVQPGGSLRLSCAASGFTFNAFGMHWVRQAPGKCLEWVAFISSGSTSIYYANTVKGRFTISRDNSKNTLYLQMNSLRAEDTAVYYCARDGYPTGGAMDYWGQGTSVTVSSGGGGSGGGGSGGGGSGGGGSDIQMTQSPSSLSASVGDRVTITCKASQDIYNYLSWFQQKPGKAPKPLIYRANILVSGVPSRFSGSGSGQDYTFTISSLQPEDIATYYCLQFDAFPFTFGCGTKLEIKGSDKTHTCPPCPAPELLGGPSVFLFPPKPKDTLMISRTPEVTCVVVDVSHEDPEVKFNWYVDGVEVHNAKTKPREEQYNSTYRVVSVLTVLHQDWLNGKEYKCKVSNKALPAPIEKTISKAKGQPREPRVYTLPPCRDELTKNQVSLTCLVKGFYPSDIAVEWESNGQPENNYKTTPPVLVSDGSFTLYSKLTVDKSRWQQGNVFSCSVMHEALHNHYTQKSLSLSPG
heavy: B1 heavy
light: B1 light
notes: the condition stands under assay; also called AB0192 Lot AB0192-005
Regarding B2, the Kd in experiment [5] is 1.68 nM; in experiment [6], 588 nM; in [7] it was 171 nM. Besides, the koff came out at 0.00129 s⁻¹ in experiment [5], 0.122 s⁻¹ in experiment [6] and 0.0199 s⁻¹ in [7]. The kon in experiment [5] is 771000 M⁻¹ s⁻¹; in [6] it was 208000 M⁻¹ s⁻¹; in [7] it was 117000 M⁻¹ s⁻¹.

B3: AB0089 TriNKET (bispecific antibody, human IgG1, kappa)
chain: B1 chain with S53V, K56A, K71V, Y98G, D101G, S103T, R207D, I220F
heavy: B1 heavy
light: B1 light
notes: F3' format heterodimer of three chains; human IgG1 Fc with EW-RVT and Y349C/S354C mutations; also called AB0089 Lot AB0089-002; CLEC12A TriNKET AB0089
Consider B3, for which the Kd in experiment [8] was 1270 nM; in experiment [9], 314 nM; in experiment [10], 941 nM; in experiment [11], 336 nM and 343 nM and 321 nM; in experiment [12], 0.6 nM. Also, the off-rate (koff) in experiment [9] was 0.0274 s⁻¹; in experiment [10], 0.15 s⁻¹; in [11], 0.0294 s⁻¹ and 0.0264 s⁻¹ and 0.0272 s⁻¹. Besides, the association rate constant (kon) is 87300 M⁻¹ s⁻¹ in experiment [9]; 159000 M⁻¹ s⁻¹ in experiment [10]; 87600 M⁻¹ s⁻¹ and 77000 M⁻¹ s⁻¹ and 84600 M⁻¹ s⁻¹ in [11]; 9.93e+06 M⁻¹ s⁻¹ in experiment [13].

B4: F3'-1602 TriNKET (other)
chain: B1 chain
heavy: B1 heavy
light: B1 light
notes: CLEC12A scFv-Fc, NKG2D A49MI Fab-Fc, human IgG1 Fc; also called AB0237
Consider B4, for which the Kd in experiment [14] worked out at 1100 nM. For the same molecule, in experiment [15], the Kd was 234 nM and 235 nM and 243 nM and 241 nM; the koff was 0.022 s⁻¹ and 0.023 s⁻¹; the kon was 96000 M⁻¹ s⁻¹ and 95000 M⁻¹ s⁻¹ and 93000 M⁻¹ s⁻¹. The Kd in experiment [16] is 315 nM and 294 nM and 302 nM. In experiment [17], the EC50 was 2 nM and the “Max binding MFI” value stood at 14700 MFI.
